Consider two molecules from US12427163B2, “Anti-VTCN1 antibodies and antibody drug conjugates” (Bluefin BioMedicine, Inc., priority 2017, dated 2025).

The target of one assay is T1, human VTCN1 protein (Homo sapiens, UniProt Q7Z7D3).
T1 construct: His
T1 sequence (Q7Z7D3 25-282): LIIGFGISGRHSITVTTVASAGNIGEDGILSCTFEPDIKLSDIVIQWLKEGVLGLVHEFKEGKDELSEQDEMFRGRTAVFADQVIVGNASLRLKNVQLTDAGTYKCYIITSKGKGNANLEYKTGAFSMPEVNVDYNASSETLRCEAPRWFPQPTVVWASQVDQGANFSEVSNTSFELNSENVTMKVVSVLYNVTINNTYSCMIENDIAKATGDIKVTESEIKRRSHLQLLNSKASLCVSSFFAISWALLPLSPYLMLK
Kind of assay: Affinity to recombinant VTCN1-his by OCTET Red (Protein A biosensors). It is filed as binding. To be noted: Table 5. The protocol:
The affinity of antibodies to recombinant VTCN1 was determined on an OCTET™ Red (Pall, ForteBio) instrument. After loading reagents into a 96-well plate, the OCTET™ Red with Protein A-conjugated biosensors was programmed as follows: 30 seconds for baseline #1; 45 seconds to immobilize the antibody; 30 seconds for baseline #2; 300 seconds for association of antibody to recombinant VTCN1-his; and 300 seconds for dissociation of recombinant VTCN1-his from the antibody. Table 5 lists the affinity measured for selected antibodies.

A further assay deals with KLN205 tumors. The experiment in a line: KLN205 syngeneic mouse lung squamous tumor model in DBA2 mice. It is filed as in vivo. To be noted: for KLN205 primary tumor growth, isotype comparison: Example 15, 200 μg (10 mg/kg) i.p. from day 9. The protocol: For the tumor study. 6-8 week-old female DBA2 mice were implanted subcutaneously in the right flank with 2.5×10^5 mouse lung squamous carcinoma KLN205 cells in 50% matrigel on day 0. Mice were treated with PBS as a vehicle control, a mouse IgG isotype control (10 mg/kg), or anti-VTCN1 6D9 antibody (10 mg/kg) on days 3, 6, 10, 13, 15, 17, 20, and 22 following tumor implantation by intraperitoneal (i.p.) injection. Tumors were measured using an electronic caliper twice a week and tumor volume was calculated using the formula 0.52*length*width*width. Mouse body weight was also measured and recorded.
6-8 week-old female DBA2 mice were implanted subcutaneously in the right flank with 2.5×10^5 mouse lung squamous carcinoma cell KLN205 cells in 50% matrigel on day 0. Tumors were measured on day 7 and mice are randomized to 7 treatment groups. The average size was 50 mm^3. The treatment groups were: PBS vehicle control, mIgG2a isotype control. 6D9, anti-mouse PD1 antibody RMP1-14, 6D9+RMP1-14, anti-mouse CTLA-4 antibody 9D9, and 6D9+9D9. The mice were treated on days 8, 11, 13, 15, 18, 20, 22, and 25. All antibodies were 10 mg/kg by i.p.
To test the activity of the 6D9 and 6D9-mIgG1 antibodies, 6-8 weeks old female DBA2 mice were implanted subcutaneously in the right flank with 0.2 million KLN205 cells in PBS on day 0. Mice were randomized on day 9 into 3 treatment groups, mIgG1 control. 6D9-mIgG1, 6D9-mIgG2a. Mice were treated on days 9, 11, 15, 18, and 22 by i.p. with 200 μg antibodies (10 mg/kg). […] However.

The test system of another assay is 4T1 tumors. Kind of assay: 4T1 mouse triple negative breast cancer model in Balb/C mice. It is filed as in vivo. As to conditions: 6D9 10 mg/kg, gemcitabine 75 mg/kg, i.p., days 5, 8, 12, 14, 16. The protocol:
6-8 week-old Balb/C mice were injected with 0.1 million of 4T1 cells in the mammary fat pad. On day 5, mice were randomized to 4 treatment groups, PBS, 6D9 (10 mg/kg), Gemcitabine (75 mg/kg), and 6D9 (10 mg/kg) plus gemcitabine (75 mg/kg). All treatments were by intraperitoneal injection and mice received a total of 5 treatments on days 5, 8, 12, 14, and 16.
The tumors and lymph nodes were harvested from these mice, and cells were dissociated and subjected to immune cell profiling by flow cytometry analysis.

Another assay relates to Hepa1-6 tumors. Kind of assay: Hepa 1-6 mouse hepatoma tumor model. To be noted: 10 mg/kg ip. twice a week, 7 doses, from day 8. It is filed as in vivo. On the procedure: The same proteomics and immunohistochemistry analysis used in Example 1 and Example 12 were also used to analyze tumors harvested from mice subcutaneously injected with Hepa 1-6 mouse hepatoma cells, and these tumors were fount to express VTCN1. To test the efficacy of anti-VTCN1 antibodies in this alternate syngeneic tumor model, 6-8 week old C57BL/6 female mice were injected with 2.5 million Hepa1-6 cells in matrigel. On day 8 after tumor cell implantation, when tumors were 100-200 mm3, tumor-bearing mice were randomized to two treatment groups and received either the isotype control, mIgG2a or the anti-VTCN1 antibody 6D9. Treatment was started on day 8 with mice receiving 10 mg/kg of antibody by ip. injection. Mice were treated at this dose level and route twice a week for a total of 7 doses. Tumor volume and body weight were recorded twice a week.

Another assay concerns the target T2, mouse VTCN1 protein (Mus musculus, UniProt Q7TSP5).
T2 construct: His
T2 sequence (Q7TSP5 25-257): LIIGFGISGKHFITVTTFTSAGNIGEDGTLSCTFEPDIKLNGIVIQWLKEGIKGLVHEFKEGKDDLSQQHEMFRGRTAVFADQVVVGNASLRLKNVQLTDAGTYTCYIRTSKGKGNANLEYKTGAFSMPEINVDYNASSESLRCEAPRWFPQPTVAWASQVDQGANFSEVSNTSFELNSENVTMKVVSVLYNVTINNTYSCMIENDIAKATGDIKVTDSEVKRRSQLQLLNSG
The experiment in a line: Cross-reactivity with mouse VTCN1 protein (method not given). It is filed as binding.

The test system of the next assay is human monocytes. Kind of assay: Cytokine treatment of monocytes, expression of VTCN1, PD-L1, CD80 by flow cytometry. It is filed as cell-based. To be noted: 24, 48, or 73 hours. The protocol: VTCN1 is expressed in monocytes and macrophages in a tumor microenviroment, the expression induced by cytokines in tumor microenviroment. VTCN1 positive macrophages inhibit T cell activation. Monocytes from healthy donors were treated with IFNγ and IL-6 to assess VTCN1 expression. Monocytes were enriched from fresh PBMC from healthy donor using a monocyte enrichment kit from Stemcell Technologies, and the purity of the obtained monocytes is greater than 95%. Monocytes were cultured in 24 well plate with different concentration of INFγ or LI-6 for 24, 48, or 73 hours, expression of VTCN1, PD-L1, and CD80 was assessed by flow cytometry. […] CD80 was expressed at low level in monocytes, and is not very responsive to cytokine treatment.
In general terms: A flow cytometer gives signals particle by particle.

Entries after “also recorded” stand apart in the source; their conditions may differ.

B1: 6D9: mouse anti-human VTCN1 antibody; VH SEQ ID NO: 113, VL SEQ ID NO: 117; 6D9 represents 6D9-mIgG2a if not otherwise specified (antibody, V domains shown)
VH: QIQLQQSGPGLVQPSQSLSITCTVSGFSLTSYGVQWIRQSPGKGLEWLGVIWSSGSTDYNAAFLSRLSFSKDNSKSQVFFQMNSLQADDSAIYYCARDVTTIVEGFAHWGQGTLVTVSA
VL: NIVMTQSPKSMSMSVGERVTLSCKASEKVGTYVSWYQQKPEQSPKLLIYGASNRYTGVPDRFTGSGSATDFTLTISSVQVEDLADYHCGQTYSYPFTFGSGTKLEIK
notes: mouse anti-human VTCN1 antibody; 6D9 represents 6D9-mIgG2a if not otherwise specified
Turning to B1, the “Kdis (human)” value with human VTCN1 protein was 1.52 × 10^−3. For the same molecule, in the assay with human VTCN1 protein, the “Kon (human)” value was 6.19 × 10^5. The “primary tumor growth of KLN205 tumors” value with KLN205 tumors (Example 13, 10 mg/kg i.p. from day 3) is “inhibits primary tumor growth of KLN205 tumors”. The “mice surviving at the end of the study on day 36” value with KLN205 tumors (Example 14) is given as “one mouse survived”. The “KLN205 tumor growth, established tumors” value in the assay on KLN205 tumors (Example 14, 10 mg/kg i.p. from day 8) is “delayed tumor growth”. In addition, the “mouse survival / time to tumor end point 1500 mm^3” value in the assay on KLN205 tumors (Example 15) is given as “prolongs the median time to endpoint irrespective of isotype”. In addition, the results for the “KLN205 primary tumor growth, isotype comparison” value with KLN205 tumors and in the assay on KLN205 tumors (listed as 6D9-mIgG2a) were “inhibits primary tumor growth” and “inhibit primary tumor growth”, respectively. Besides, the 4T1 tumor growth result with 4T1 tumors is “did not show any effect in 4T1 tumor growth”. In the assay on Hepa1-6 tumors, the Hepa1-6 tumor growth entry is on record as “inhibits primary tumor growth; also recorded: inhibits tumor growth of Hepa1-6 tumors”. Further, the “cross-reactivity with mouse VTCN1 protein” value with mouse VTCN1 protein is listed as “cross-reacts with mouse VTCN1 protein”.

B2: IFNγ: cytokine added to human monocyte cultures (protein, UniProt P01579 24-161, looked up)
Interferon gamma: QDPYVKEAENLKKYFNAGHSDVADNGTLFLGILKNWKEESDRKIMQSQIVSFYFKLFKNFKDDQSIQKSVETIKEDMNVKFFNSNKKKRDDFEKLTNYSVTDLNVQRKAIHELIQVMAELSPAAKTGKRKRSQMLFRG
For the molecule B2, the “VTCN1 and PD-L1 expression in monocytes” value with human monocytes was “VTCN1 and PD-L1 expression was induced”.
